T1: His6-Fy-1 (Tbck), subunit of the reconstituted FERRY complex (human, UniProt Q8TEA7 1-893)
T1 sequence (looked up): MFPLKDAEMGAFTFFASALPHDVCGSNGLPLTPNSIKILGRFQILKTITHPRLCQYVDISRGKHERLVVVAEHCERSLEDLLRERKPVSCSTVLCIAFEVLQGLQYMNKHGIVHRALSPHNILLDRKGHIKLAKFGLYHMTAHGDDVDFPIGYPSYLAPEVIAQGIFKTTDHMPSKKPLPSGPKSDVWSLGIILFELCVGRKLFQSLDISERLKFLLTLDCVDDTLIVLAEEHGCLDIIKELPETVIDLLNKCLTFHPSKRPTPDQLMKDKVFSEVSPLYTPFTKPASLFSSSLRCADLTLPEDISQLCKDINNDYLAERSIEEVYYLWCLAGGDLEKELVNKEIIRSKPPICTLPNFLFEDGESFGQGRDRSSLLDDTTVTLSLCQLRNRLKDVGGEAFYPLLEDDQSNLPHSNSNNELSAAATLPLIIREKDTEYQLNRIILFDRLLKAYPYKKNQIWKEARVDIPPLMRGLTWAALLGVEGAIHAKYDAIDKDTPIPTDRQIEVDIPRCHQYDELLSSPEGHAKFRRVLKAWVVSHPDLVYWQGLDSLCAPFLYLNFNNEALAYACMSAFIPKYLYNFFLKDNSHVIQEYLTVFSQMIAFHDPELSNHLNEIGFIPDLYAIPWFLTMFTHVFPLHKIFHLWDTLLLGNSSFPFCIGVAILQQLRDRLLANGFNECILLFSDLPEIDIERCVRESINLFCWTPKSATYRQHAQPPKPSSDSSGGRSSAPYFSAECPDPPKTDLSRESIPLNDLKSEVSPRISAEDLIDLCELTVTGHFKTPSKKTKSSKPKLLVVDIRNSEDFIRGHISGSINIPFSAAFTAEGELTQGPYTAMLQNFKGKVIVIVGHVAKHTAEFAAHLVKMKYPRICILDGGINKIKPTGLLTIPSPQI


biological target: Fy-1 (TBCK);Fy-2 (PPP1R21);Fy-3 (C12orf4);Fy-4 (CRYZL1);Fy-5 (GATD1) (Homo sapiens;Homo sapiens;Homo …, UniProt Q8TEA7;Q6ZMI0;Q9NQ89;O95825;Q8NB37 1-893;1-780;1-552;1-349;1-220, ||||); experiment: EMSA

Binder | binding result
mrpl41 5'UTR (ssRNA) RNA: GGGGCUCUUGCUGCGACGCAGCGGUCGGAAGCGGAGCAAGGUCGAGGCCGGGUUGGCGCCGGAGCCGGGGCCGCUUGGAGCUCGUGUGGGGUCUCCGGUCCAGGGCGCGGCGCGGCCGC | no binding
atp5f1b (atp5b) 3'UTR-50A (ssRNA) RNA: GGGGGGGUCUUUGUCCUCUGUACUGUCUCUCUCCUUGCCCCUAACCCAAAAAGCUUCAUUUUUCUGUGUAGGCUGCACAAGAGCCUUGAUUGAAGAUAUAUUCUUUCUGAACAGUAUUUAAGGUUUCCAAUAAAAUGUACACCCCUCAGAAAAAAAAAAAAAAAAAAAAAAAAAAAAAAAAAAAAAAAAAAAAAAAAAAAAGCGGCCGC | no binding

biological target: T1, His6-Fy-1 (Tbck), subunit of the …; experiment: SEC

Binder | stoichiometry N
His6-Fy-4 (Cryzl1) (natural protein, human, UniProt O95825 1-349, looked up) MKGLYFQQSSTDEEITFVFQEKEDLPVTEDNFVKLQVKACALSQINTKLLAEMKMKKDLFPVGREIAGIVLDVGSKVSFFQPDDEVVGILPLDSEDPGLCEVVRVHEHYLVHKPEKVTWTEAAGSIRDGVRAYTALHYLSHLSPGKSVLIMDGASAFGTIAIQLAHHRGAKVISTACSLEDKQCLERFRPPIARVIDVSNGKVHVAESCLEETGGLGVDIVLDAGVRLYSKDDEPAVKLQLLPHKHDIITLLGVGGHWVTTEENLQLDPPDSHCLFLKGATLAFLNDEVWNLSNVQQGKYLCILKDVMEKLSTGVFRPQLDEPIPLYEAKVSMEAVQKNQGRKKQVVQF | 2
Fy-2 (Ppp1r21), untagged subunit of the reconstituted FERRY complex (natural protein, human, UniProt Q6ZMI0 1-780, looked up) MASAELQGKYQKLAQEYSKLRAQNQVLKKGVVDEQANSAALKEQLKMKDQSLRKLQQEMDSLTFRNLQLAKRVELLQDELALSEPRGKKNKKSGESSSQLSQEQKSVFDEDLQKKIEENERLHIQFFEADEQHKHVEAELRSRLATLETEAAQHQAVVDGLTRKYMETIEKLQNDKAKLEVKSQTLEKEAKECRLRTEECQLQLKTLHEDLSGRLEESLSIINEKVPFNDTKYSQYNALNVPLHNRRHQLKMRDIAGQALAFVQDLVTALLNFHTYTEQRIQIFPVDSAIDTISPLNQKFSQYLHENASYVRPLEEGMLHLFESITEDTVTVLETTVKLKTFSEHLTSYICFLRKILPYQLKSLEEECESSLCTSALRARNLELSQDMKKMTAVFEKLQTYIALLALPSTEPDGLLRTNYSSVLTNVGAALHGFHDVMKDISKHYSQKAAIEHELPTATQKLITTNDCILSSVVALTNGAGKIASFFSNNLDYFIASLSYGPKAASGFISPLSAECMLQYKKKAAAYMKSLRKPLLESVPYEEALANRRILLSSTESREGLAQQVQQSLEKISKLEQEKEHWMLEAQLAKIKLEKENQRIADKLKNTGSAQLVGLAQENAAVSNTAGQDEATAKAVLEPIQSTSLIGTLTRTSDSEVPDVESREDLIKNHYMARIVELTSQLQLADSKSVHFYAECRALSKRLALAEKSKEALTEEMKLASQNISRLQDELTTTKRSYEDQLSMMSDHLCSMNETLSKQREEIDTLKMSSKGNSKKNKSR | 2

Next, values leading:

stoichiometry N | Binder
1 | Fy-3 (C12orf4), untagged subunit of the recombinant FERRY and GST-FERRY complexes (natural protein, human, UniProt Q9NQ89 1-552, looked up) MKKNRERFCNREREFVYKFKVGSQCLELRVPLKFPVQENASHLHGRLMLLHSLPCFIEKDLKEALTQFIEEESLSDYDRDAEASLAAVKSGEVDLHQLASTWAKAYAETTLEHARPEEPSWDEDFADVYHDLIHSPASETLLNLEHNYFVSISELIGERDVELKKLRERQGIEMEKVMQELGKSLTDQDVNSLAAQHFESQQDLENKWSNELKQSTAIQKQEYQEWVIKLHQDLKNPNNSSLSEEIKVQPSQFRESVEAIGRIYEEQRKLEESFTIHLGAQLKTMHNLRLLRADMLDFCKHKRNHRSGVKLHRLQTALSLYSTSLCGLVLLVDNRINSYSGIKRDFATVCQECTDFHFPRIEEQLEVVQQVVLYARTQRRSKLKESLDSGNQNGGNDDKTKNAERNYLNVLPGEFYITRHSNLSEIHVAFHLCVDDHVKSGNITARDPAIMGLRNILKVCCTHDITTISIPLLLVHDMSEEMTIPWCLRRAELVFKCVKGFMMEMASWDGGISRTVQFLVPQSISEEMFYQLSNMLPQIFRVSSTLTLTSKH
4 | His6-Fy-5 (Gatd1) (natural protein, human, UniProt Q8NB37 1-220, looked up) MASERLPNRPACLLVASGAAEGVSAQSFLHCFTMASTAFNLQVATPGGKAMEFVDVTESNARWVQDFRLKAYASPAKLESIDGARYHALLIPSCPGALTDLASSGSLARILQHFHSESKPICAVGHGVAALCCATNEDRSWVFDSYSLTGPSVCELVRAPGFARLPLVVEDFVKDSGACFSASEPDAVHVVLDRHLVTGQNASSTVPAVQNLLFLCGSRK

Source: doi:10.1101/2021.06.20.449167 (bioRxiv, 2021)
